Results from patent publication US20100261660A1 (published 2010).

Assays:
[1] = molecular target: T1, Soluble CTLA-4-Ig (extracellular domain of human CTLA-4 fused to the Fc portion of human IgG1) (human, UniProt P16410 36-161, FITC-conjugated in the FACS binding assays); assay: flow cytometry of transfected cells, at least two experiments
T1 construct: extracellular domain; bought from R&D Systems; also called sCTLA-4-Ig; CTLA-4-Ig Fc; not shown: Fc portion of human IgG1

[2] = molecular target: T2, Soluble CD28-Ig (extracellular domain of human CD28 fused to the Fc portion of human IgG1) (human, UniProt P10747 19-152, biotin-conjugated (NHS-biotin) in the FACS binding assays); assay: competitive FACS on transfected cells, biotin-sCD28-Ig with FITC-sCTLA-4-Ig; grade 0-2 of CD28/CTLA-4 ratio vs WT hB7-1
T2 construct: extracellular domain; bought from R&D Systems; also called sCD28-Ig; CD28-Ig Fc; not shown: Fc portion of human IgG1

[3] = molecular target: CD28 receptor on human T cells (human, UniProt P10747 19-220); assay: cell-based or functional assay
[4] = molecular target: T2, Soluble CD28-Ig (extracellular domain …); assay: binding assay, data not shown
[5] = molecular target: T1, Soluble CTLA-4-Ig (extracellular domain …); assay: binding assay, data not shown
[6] = molecular target: T2, Soluble CD28-Ig (extracellular domain …); assay: two-color FACS of transfected 293 cells
Description: (§1) The labeled cells were subsequently handled at 4° C., washed twice with DMEM/10% FCS and incubated with 0.1 μg/ml Streptavidin-phycoerythrin (PE) (Pharmingen, San Diego, Calif.) in 100 μl for 15 min. Biotin binds the fluorescence marker Streptavidin-PE. (R-PE has an excitation maximum of 565 nanometers (nm) and an emission maximum of 578 nm. B-PE has excitation and emission maxima of 545 nm and 578 nm, respectively. FITC has excitation and emission maxima of 494 and 519, respectively.) The cells were again washed twice and resuspended in 200 μl medium with 5 μg/ml propidium iodide (PI). The cells were then analyzed using a FACSCalibur flow cytometer and CellQuest software (BDIS, San Jose, Calif.). Cell sorting was performed by flow-cytometry based cell sorting screening methods using FACS (Fluorescence-Activated Cell Sorting) Vantage SE cell sorter (BDIS) (Becton Dickinson; San Jose, Calif.). The staining concentration was determined for each labeled protein to provide a maximal Mean Fluorescence Intensity (MFI) and minimal background signal (e.g., optimum staining concentration was the concentration per 10⁶ cells).

[7] = molecular target: T1, Soluble CTLA-4-Ig (extracellular domain …); assay: two-color FACS of transfected 293 cells
Description: as §1

[8] = molecular target: T2, Soluble CD28-Ig (extracellular domain …); assay: flow cytometry of transiently transfected 293 cells

T1 sequence (P16410 36-161): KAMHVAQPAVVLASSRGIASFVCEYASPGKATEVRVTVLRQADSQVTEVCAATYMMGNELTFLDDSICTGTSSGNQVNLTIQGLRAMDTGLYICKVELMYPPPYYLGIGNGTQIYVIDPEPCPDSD

B1: Round 1 CD28BP-84 (ligand)
chain: GISQVTKSVKEMAALSCDYNISIDELARMRIYWQKDQQMVLSIISGQVEVWPEYKNRTFPDIINNLSLMILALRLSDKGTYTCVVQKNENGSFRREHLTSVTLSIRADSPVPSITDIGHPAPNVKRIRCSASGGFPEPRLAWMEDGEELNAVNTTVDQDLDTELYSVSSELDFNVTNNHSIVCLIKYGELSVSQIFPWSKPKQEPPIDQLPFWVIIPVSGALVLTAVVLYCLACRHVARWKRTRRNEETVGTERLSPIYLGSAQSSG
notes: also called R1clone 84; Clone 84
Does B1 bind [1]?
Result: binds

What about the “Binding Score” value [2] of the same binder?
The value was 1.

B2: Round 1 CD28BP-118 (ligand)
chain: GISQVTKSVKEMAALSCDYNISIDELARMRIYWQKDQQMVLSIISGQVEVWPEYKNRTFPDIINNLSLMILALRLSDKGTYTCVVQKNENGSFRREHLTSVTLSIRADFPVPSITDIGHPAPNVKRIRCSASGDFPEPRLAWMEDGEELNAVNTTVDQDLDTELYSVSSELDFNVTNNHSIVCLIKYGELSVSQIFPWSKPKQEPPIDQLPFWVIIPVSGALVLTAVVLYCLACRHVARWKRTRRNEETVGTERLSPIYLGSAQSSG
notes: also called R1clone 118; Clone 118
Does B2 bind [1]?
Result: binds

And the “Binding Score” value [2]?
Its value is 1.

B3: Round 2 CD28F11-8 (ligand)
chain: ITPKSVTKRVKETVMLSCDYNTSTEELTSLRIYWQKDSKMVLAILPGKVQVWPEYKNRTITDMNDNPRIVILALRLSDSGTYTCVIQKPVLKGAYKLEHLTSVRLMIRADFPVPTINDLGNPSPNIRRLICSTSGGFPRPHLYWLENGEELNATNTTLSQDPETKLYMISSELDFNMTSNLCLVKYGDLTVSQTFYWQESKPTPSANQHLTWTIIIPVSAFGISVIIAVILTCLTCRNAAIRRQRRENEVEMQSCSQSP
How did the “Binding Score” value [2] turn out when B3 was run?
Its value is 0.

B4: Round 2 CD28BP-15 (ligand)
chain: ITPKSVTKRVKETVMLSCDYNTSTEELTSLRIYWQKDSKMVLAILPGKVQVWPEYKNRTITDMNDNPRIVILALRPSDSGTYTCVIQKPVLKGAYKLEHLASVRLMIRADFPVPTINDLGNPSPNIRRLICSTSGGFPRPHLYWLENGEELNATNTTVSQDPGTELYMISSELDFNVTNNHSIVCLIKYGELSVSQIFPWSKPKQEPPIDQLPFWVIIPVSGALVLTAVVLYCLACRHVARWKRTRRNEETVGTERLSPIYLGSAQSSG
notes: also called clone R2 CD28BP-15; clone 15
With B4 as the binder, how does the “T cell proliferation (3H-thymidine incorporation), irradiated 293 transfectants with purified human T cells and anti-CD3 mAbs” value [3] read?
Its value is ~10 fold.

And the “Binding Score” value [2]?
The value was 2.

B5: Baboon B7-1 (ligand)
chain: VIHVTKEVKEVATLSCGHNVSVEELAQTRIYWQKEKKMVLTMMSGDMNIWPEYKNRTIFDITNNLSIVILALRPSDEGTYECVVLKYEKDAFKREHLAEVMLSVKADFPTPSITDFEIPPSNIRRIICSTSGGFPEPHLFWLENGEELNAINTTVSQDPGTELYTVSSKLDFNMTTNHSFVCLIKYGHLRVNQTFNWNTPKQEHFPDNLLPSWAITLISVNGIFVICCLTYCFAPRCRERRRNETLRRESVRPV
Does B5 bind [4]?
Result: binds

Does B5 bind [5]?
Result: binds

B6: Orangutan B7-1 (ligand)
chain: VIHVTKEVKEVATLSCGHNVSVEELAQTRIYWQKEKKMVLTMMSGDMNIWPEYKNRTIFDITNNLSIVILALRPSDEGTYECVVLKYEKDAFKREHLAEVTLSVKADFPTPSISDFEIPTSNIRRMICSTSGGFPEPHLSWLENGEELNAISTTVSQDPETELYAVSSKLDFNMTTNHSFMCLIKYGHLRVNQTFNWNTPKQEHFPDNLLPSWAITLISVNGIFVICCLTYCFAPRCRERRSNERLRRESVRPV
What does the source list for B6?
binding result [4]: binds; binding result [5]: binds

B7: Rhesus B7-1 (ligand)
chain: VIHVTKEVKEVATLSCGHNVSVEELAQTRIYWQKEKKMVLTMMSGDMNIWPEYKNRTIFDITNNLSIVILALRPSDEGTYECVVLKYEKDAFKREHLAEVMLSVKADFPTPSITDFEIPPSNIRRIICSTSGGFPEPRLSWLENGEELNAISTTVSQDPETELYTVSSKLDFNMTTNHSFMCLIKYGHLRVNQTFNWNTPKQEHFPDNLLPSWAITLISVNGIFVICCLTHCFAPRCRERRRNETLRRESVRPV
notes: also called rhesus monkey B7-1
Which results are given for B7?
binding result [6]: binds; binding result [7]: binds

B8: CD28BP-FLAG (CD28BP-15 with a FLAG-tag) (ligand)
chain: DYKDDDDKITPKSVTKRVKETVMLSCDYNTSTEELTSLRIYWQKDSKMVLAILPGKVQVWPEYKNRTITDMNDNPRIVILALRPSDSGTYTCVIQKPVLKGAYKLEHLASVRLMIRADFPVPTINDLGNPSPNIRRLICSTSGGFPRPHLYWLENGEELNATNTTVSQDPGTELYMISSELDFNVTNNHSIVCLIKYGELSVSQIFPWSKPKQEPPIDQLPFWVIIPVSGALVLTAVVLYCLACRHVARWKRTRRNEETVGTERLSPIYLGSAQSSG
notes: also called FLAG-construct of CD28BP-15
Does B8 bind [8]?
Result: binds
